Assays:
HveA(200t) = target: T1, HveA(200t) (UniProt Q92956 39-200); experiment: ELISA, peptide on coated HveA(200t), antiserum R11
T1 construct: Purified soluble receptor coated on ELISA plates; also called recombinant HveA; soluble gD receptor HveA
T1 sequence: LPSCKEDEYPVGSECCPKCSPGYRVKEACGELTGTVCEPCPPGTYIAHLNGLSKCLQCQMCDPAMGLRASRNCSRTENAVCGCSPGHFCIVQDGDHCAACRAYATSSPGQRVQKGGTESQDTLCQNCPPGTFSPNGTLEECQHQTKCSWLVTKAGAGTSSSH

HveC(346t) = target: T2, HveC(346t) (UniProt Q15223 31-346); experiment: ELISA, peptide on coated HveC(346t), antiserum R11
T2 construct: Purified soluble receptor coated on ELISA plates; also called recombinant HveC; soluble gD receptor HveC
T2 sequence: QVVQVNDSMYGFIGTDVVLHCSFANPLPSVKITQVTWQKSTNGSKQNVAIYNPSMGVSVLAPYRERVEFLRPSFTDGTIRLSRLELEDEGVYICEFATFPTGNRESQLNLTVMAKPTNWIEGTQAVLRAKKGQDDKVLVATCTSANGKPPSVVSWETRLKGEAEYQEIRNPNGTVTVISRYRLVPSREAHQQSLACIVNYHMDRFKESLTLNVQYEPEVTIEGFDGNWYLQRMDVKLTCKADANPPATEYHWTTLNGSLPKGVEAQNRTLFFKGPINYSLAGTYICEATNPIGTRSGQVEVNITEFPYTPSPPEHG

## ASLKMADPNRFRGKDLPVLDQ (synthetic peptide) [Polypeptide A1]
HveA(200t)
  binding result: no binding (tested: between 1 µM and 1000 µM)
HveC(346t)
  binding result: no binding (tested: between 1 µM and 1000 µM)
